Key:
Details in all cases: both partners purified
[1] = biological target: T1, full-length Rrp5 (recombinant) (S. cerevisiae, UniProt Q05022 1-1729); experiment: pull-down; 5 uM Has1 with 3 uM His-Rrp5 on Ni-NTA resin, pull-down buffer, 4°C; eluted with 300 mM imidazole
T1 construct: Rrp5, S. cerevisiae, 193 kDa, 12 S1 domains followed by seven TPR repeats; The His6 tag is named only for the Has1 pull-down (His6-Rrp5, His-Rrp5); I take both to be the one Rrp5-FL preparation; also called Rrp5-FL; Rrp5_FL

[2] = biological target: T1, full-length Rrp5 (recombinant); experiment: negative-stain single-particle EM reconstruction; 100 pmol Rok1 incubated with Rrp5 in 300 mM NaCl, 10 mM MgCl2, 30 mM MES pH 6.7, 20°C, 2 h; GraFix glycerol/glutaraldehyde gradient; uranyl formate stain
[3] = biological target: T1, full-length Rrp5 (recombinant); experiment: pull-down; 5 uM FL Rrp5 or Rrp5 fragments with 3 uM GST-Rok1 (or GST) on GSH sepharose; 150 mM NaCl, 30 mM HEPES/NaOH pH 7.5, 5% glycerol; 4°C; eluted with 20 mM reduced glutathione
[4] = biological target: T1, full-length Rrp5 (recombinant); experiment: pull-down; 10 uM FL Rrp5 or Rrp5_TPR2+7 with 15 uM MBP-Rok1 (or MBP) on amylose resin; 150 mM NaCl, 30 mM HEPES/NaOH pH 7.5, 5% glycerol; 4°C; eluted with 20 mM maltose

T1 sequence (Q05022 whole entry, the tested form may be a part): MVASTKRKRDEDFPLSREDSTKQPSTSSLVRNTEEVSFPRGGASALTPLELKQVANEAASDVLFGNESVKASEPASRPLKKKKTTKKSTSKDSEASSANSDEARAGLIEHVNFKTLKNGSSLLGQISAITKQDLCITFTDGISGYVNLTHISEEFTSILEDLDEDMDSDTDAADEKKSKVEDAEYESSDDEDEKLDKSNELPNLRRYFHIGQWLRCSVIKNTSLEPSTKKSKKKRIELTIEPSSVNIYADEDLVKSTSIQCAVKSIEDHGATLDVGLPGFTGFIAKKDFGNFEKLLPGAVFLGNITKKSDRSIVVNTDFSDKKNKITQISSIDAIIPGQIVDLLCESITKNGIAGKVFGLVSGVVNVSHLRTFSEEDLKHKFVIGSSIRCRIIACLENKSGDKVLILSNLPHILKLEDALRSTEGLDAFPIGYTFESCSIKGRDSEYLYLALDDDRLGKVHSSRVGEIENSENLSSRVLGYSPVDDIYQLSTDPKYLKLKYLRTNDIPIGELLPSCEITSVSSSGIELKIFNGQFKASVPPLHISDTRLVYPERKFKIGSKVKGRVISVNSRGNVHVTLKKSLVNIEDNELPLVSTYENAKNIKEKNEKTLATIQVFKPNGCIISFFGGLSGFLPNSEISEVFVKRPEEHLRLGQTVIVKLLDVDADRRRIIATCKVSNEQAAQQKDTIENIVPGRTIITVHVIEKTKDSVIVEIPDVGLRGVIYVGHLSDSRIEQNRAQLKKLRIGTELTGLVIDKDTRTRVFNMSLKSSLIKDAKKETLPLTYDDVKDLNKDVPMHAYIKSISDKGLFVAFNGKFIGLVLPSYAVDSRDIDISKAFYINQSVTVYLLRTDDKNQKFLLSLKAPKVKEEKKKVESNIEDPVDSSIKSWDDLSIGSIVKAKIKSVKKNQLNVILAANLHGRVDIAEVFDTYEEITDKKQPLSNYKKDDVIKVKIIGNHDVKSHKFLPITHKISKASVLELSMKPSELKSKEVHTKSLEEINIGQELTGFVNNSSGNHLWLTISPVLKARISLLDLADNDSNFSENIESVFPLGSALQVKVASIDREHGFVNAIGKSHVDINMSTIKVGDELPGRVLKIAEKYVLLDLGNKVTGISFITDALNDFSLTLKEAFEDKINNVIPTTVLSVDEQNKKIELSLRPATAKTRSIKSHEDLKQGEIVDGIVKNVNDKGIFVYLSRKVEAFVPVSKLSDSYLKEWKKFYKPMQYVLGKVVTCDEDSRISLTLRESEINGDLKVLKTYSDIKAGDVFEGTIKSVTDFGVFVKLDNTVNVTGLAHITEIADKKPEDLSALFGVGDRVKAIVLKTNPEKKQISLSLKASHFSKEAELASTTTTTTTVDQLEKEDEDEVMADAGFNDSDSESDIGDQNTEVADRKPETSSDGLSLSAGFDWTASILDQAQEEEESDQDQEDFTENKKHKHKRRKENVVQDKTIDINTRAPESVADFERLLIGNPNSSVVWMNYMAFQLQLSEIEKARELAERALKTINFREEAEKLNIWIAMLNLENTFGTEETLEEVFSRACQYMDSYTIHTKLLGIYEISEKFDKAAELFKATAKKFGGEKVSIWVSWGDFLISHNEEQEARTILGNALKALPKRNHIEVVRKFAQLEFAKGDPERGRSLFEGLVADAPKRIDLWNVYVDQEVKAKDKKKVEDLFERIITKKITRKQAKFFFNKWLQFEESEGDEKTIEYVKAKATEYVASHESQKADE

B1: Has1 (recombinant) (enzyme)
chain: not shown
notes: Has1, DEAD-box protein, HAS1 gene cloned from yeast into pSV272 as a TEV-cleavable His6-MBP fusion; also called recombinant Has1; source: E. coli Rosetta2 (DE3), purified (Ni-NTA, MonoS, Superdex S-200)
binding result [1]: binds

B2: Rok1 (recombinant) (enzyme, S. cerevisiae, UniProt P45818 1-564, looked up)
chain: MDIFRVLTRGASVKKESGPKAKAADYSVINGNDENHKEDNNESQIVKELDFFRNKRIISKVEDDREKTTENDSPNKEEKSGNDDGLIKPVITNTVEASALRKSYKGNVSGIDIPLPIGSFEDLISRFSFDKRLLNNLIENGFTEPTPIQCECIPVALNNRDVLACGPTGSGKTLAFLIPLVQQIIDDKQTAGLKGLIISPTKELANQIFIECFKLSYKIFLEKKRPLQVALLSKSLGAKLKNKVVSDKKYDIIISTPLRLIDVVKNEALDLSKVKHLIFDEADKLFDKTFVEQSDDILSACREPSLRKAMFSATIPSNVEEIAQSIMMDPVRVIIGHKEAANTNIEQKLIFCGNEEGKLIAIRQLVQEGEFKPPIIIFLESITRAKALYHELMYDRINVDVIHAERTALQRDRIIERFKTGELWCLICTDVLARGIDFKGVNLVINYDVPGSSQAYVHRIGRTGRGGRSGKAITFYTKQDSVAIKPIINVMKQSGCEVSEWMDKMAKMTRKEKESIKNGKAHKERKQITTVPKMDKAKRRRQQEMIAASKRRKNEELSKKHFSK
notes: Rok1, DEAD-box protein, 64 kDa; Named Rok1 without a tag, in contrast to MBP-Rok1 and GST-Rok1; also called recombinant Rok1
binding result [2]: binds

B3: glutathione S-transferase (GST)-tagged Rok1 (enzyme, S. cerevisiae, UniProt P45818 1-564, looked up)
chain: MDIFRVLTRGASVKKESGPKAKAADYSVINGNDENHKEDNNESQIVKELDFFRNKRIISKVEDDREKTTENDSPNKEEKSGNDDGLIKPVITNTVEASALRKSYKGNVSGIDIPLPIGSFEDLISRFSFDKRLLNNLIENGFTEPTPIQCECIPVALNNRDVLACGPTGSGKTLAFLIPLVQQIIDDKQTAGLKGLIISPTKELANQIFIECFKLSYKIFLEKKRPLQVALLSKSLGAKLKNKVVSDKKYDIIISTPLRLIDVVKNEALDLSKVKHLIFDEADKLFDKTFVEQSDDILSACREPSLRKAMFSATIPSNVEEIAQSIMMDPVRVIIGHKEAANTNIEQKLIFCGNEEGKLIAIRQLVQEGEFKPPIIIFLESITRAKALYHELMYDRINVDVIHAERTALQRDRIIERFKTGELWCLICTDVLARGIDFKGVNLVINYDVPGSSQAYVHRIGRTGRGGRSGKAITFYTKQDSVAIKPIINVMKQSGCEVSEWMDKMAKMTRKEKESIKNGKAHKERKQITTVPKMDKAKRRRQQEMIAASKRRKNEELSKKHFSK
notes: Rok1, DEAD-box protein; also called GST-Rok1; source: E. coli Rosetta2 (DE3), recombinant; purification not described here
binding result [3]: binds

B4: maltose binding protein (MBP)-tagged Rok1 (enzyme, S. cerevisiae, UniProt P45818 1-564, looked up)
chain: MDIFRVLTRGASVKKESGPKAKAADYSVINGNDENHKEDNNESQIVKELDFFRNKRIISKVEDDREKTTENDSPNKEEKSGNDDGLIKPVITNTVEASALRKSYKGNVSGIDIPLPIGSFEDLISRFSFDKRLLNNLIENGFTEPTPIQCECIPVALNNRDVLACGPTGSGKTLAFLIPLVQQIIDDKQTAGLKGLIISPTKELANQIFIECFKLSYKIFLEKKRPLQVALLSKSLGAKLKNKVVSDKKYDIIISTPLRLIDVVKNEALDLSKVKHLIFDEADKLFDKTFVEQSDDILSACREPSLRKAMFSATIPSNVEEIAQSIMMDPVRVIIGHKEAANTNIEQKLIFCGNEEGKLIAIRQLVQEGEFKPPIIIFLESITRAKALYHELMYDRINVDVIHAERTALQRDRIIERFKTGELWCLICTDVLARGIDFKGVNLVINYDVPGSSQAYVHRIGRTGRGGRSGKAITFYTKQDSVAIKPIINVMKQSGCEVSEWMDKMAKMTRKEKESIKNGKAHKERKQITTVPKMDKAKRRRQQEMIAASKRRKNEELSKKHFSK
notes: Rok1, DEAD-box protein; also called MBP-Rok1; source: E. coli Rosetta2 (DE3), recombinant; purification not described here
binding result [4]: binds

Source: article PMC4900678, “The DEAD-box Protein Rok1 Orchestrates 40S and 60S Ribosome Assembly by Promoting the Release of Rrp5 from Pre-40S Ribosomes to Allow for 60S Maturation” (PLoS Biology, 2016)
